Consider seven molecules from patent US6998239 (CHEMOCENTRYX, dated 2006).

Assay [1] deals with T1, human CCX CKR with N-terminal Flag epitope, stably expressed on HEK293 cells (human, UniProt Q9NPB9 1-350).
T1 construct: also called HEK293-CCX CKR cells
T1 sequence: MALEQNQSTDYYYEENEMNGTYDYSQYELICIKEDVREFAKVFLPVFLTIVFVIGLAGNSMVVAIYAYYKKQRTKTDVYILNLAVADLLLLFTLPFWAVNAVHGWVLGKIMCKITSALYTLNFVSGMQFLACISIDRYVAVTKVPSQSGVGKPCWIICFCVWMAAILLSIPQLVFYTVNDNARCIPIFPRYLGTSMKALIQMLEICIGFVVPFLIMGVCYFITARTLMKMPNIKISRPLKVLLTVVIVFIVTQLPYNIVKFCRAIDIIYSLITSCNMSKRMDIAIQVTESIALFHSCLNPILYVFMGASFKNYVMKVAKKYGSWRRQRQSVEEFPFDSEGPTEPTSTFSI
The assay can be described thus: radioligand binding competition on CCX CKR stable transfectants, Scatchard transformation.

Assay [2] deals with T1, human CCX CKR with N-terminal Flag …. The assay can be described thus: radioligand binding competition on CCX CKR stable transfectants (similar experiments).
Assay [3] shares this target. The assay can be described thus: displacement of 125I-ELC or 125I-TECK from CCX CKR transfectants, 200 nM cold chemokine.

B1: human ELC (EBI1 ligand chemokine) (ligand, UniProt Q99731 22-98, looked up)
chain: GTNDAEDCCLSVTQKPIPGYIVRNFHYLLIKDGCRVPAVVFTTLRGRQLCAPPDQPWVERIIQRLQRTSAKMKRRSS
modifications: 125I label where used as radioligand
notes: also called MIP-3beta; MIP3beta
B1: in assay [1], the binding result is given as “binds”.

B2: human SLC (secondary lymphoid-tissue chemokine) (ligand, UniProt O00585 24-134, looked up)
chain: SDGGAQDCCLKYSQRKIPAKVVRSYRKQEPSLGCSIPAILFLPRKRSQAELCADPKELWVQQLMQHLDKTPSPQKPAQGCRKDRGASKTGKKGKGSKGCKRTERSQTPKGP
notes: also called 6Ckine
As to B2, in assay [1], the binding result is recorded as “binds”.

B3: murine CTACK (ligand, UniProt Q9Z1X0 26-120, looked up)
chain: LPLPSSTSCCTQLYRQPLPSRLLRRIVHMELQEADGDCHLQAVVLHLARRSVCVHPQNRSLARWLERQGKRLQGTVPSLNLVLQKKMYSHPQQQN
notes: also called mCTACK; CCL27
A word on the Kd: it is the concentration at which binding is half-saturated. B3 registered a Kd in assay [2] of around 9 nM.

B4: murine TECK (ligand, UniProt O35903 24-144, looked up)
chain: QGAFEDCCLGYQHRIKWNVLRHARNYHQQEVSGSCNLRAVRFYFRQKVVCGNPEDMNVKRAMRILTARKRLVHWKSASDSQTERKKSNHMKSKVENPNSTSVRSATLGHPRMVMMPRKTNN
Turning to B4, the binding result in assay [3] is reported as “binds”.

B5: mMIP-1gamma (murine macrophage inflammatory protein 1 gamma) (ligand, UniProt P51670 22-122, looked up)
chain: QITHATETKEVQSSLKAQQGLEIEMFHMGFQDSSDCCLSYNSRIQCSRFIGYFPTSGGCTRPGIIFISKRGFQVCANPSDRRVQRCIERLEQNSQPRTYKQ
notes: also called mMIP-1γ; CCF18
With B5, in assay [3], the binding result was “binds”.

B6: murine ELC (ligand, UniProt O70460 26-108, looked up)
chain: GANDAEDCCLSVTQRPIPGNIVKAFRYLLNEDGCRVPAVVFTTLRGYQLCAPPDQPWVDRIIRRLKKSSAKNKGNSTRRSPVS
For B6, the binding result in assay [3] is listed as “binds”.

B7: human TECK (thymus expressed chemokine) (ligand, UniProt O15444 24-150, looked up)
chain: QGVFEDCCLAYHYPIGWAVLRRAWTYRIQEVSGSCNLPAAIFYLPKRHRKVCGNPKSREVQRAMKLLDARNKVFAKLHHNTQTFQAGPHAVKKLSSGNSKLSSSKFSNPISSSKRNVSLLISANSGL
modifications: 125I label where used as radioligand
As to B7, in assay [3], the binding result is “binds”.
